This note sets out measurements from patent US20090098608A1.

For experiment [1], the target named is FLAG-mLangerin.ECD (mouse) (UniProt Q9CS74). Description: Western blot, purified protein in two-fold dilutions, 1 µg/ml antibody. A general note: A western blot detects proteins with antibodies after separation by electrophoresis.
For experiment [2], the target named is both N-terminal and C-terminal FLAG tagged proteins. Put plainly: Western blot, serial dilutions.
For experiment [3], the target named is FLAG-mSIGN-R1.ECD (mouse) (UniProt Q9CS74). Description: Western blot, 293T lysate in two-fold dilutions.

In experiment [1], “mouse anti-FLAG mAb M2 (ANTI-FLAG M2, Sigma-Aldrich) (antibody)” returned a lowest amount of purified protein detected by Western blot of 100 ng.
As to rat anti-FLAG mAb L5 (antibody), in experiment [2], the times better detection than mAb M2 was 2 to 8 times. The substance also had a fold fewer cells detectable than mAb M2 in experiment [3] of 8 fold. In experiment [1], this substance showed a fold lower detectable amount than mAb M2 of 4 fold and a lowest amount of purified protein detected by Western blot of 25 ng.
